Reference: US6001575

Target: GRIP (full length, 1112 amino acids, 130 kDa protein) (rat)

Substance	GluR1 Clusters (synaptic AMPA receptor clusters in transfected spinal cord neurons) (GluR1 Clusters)
myc-tagged GluR2C (C-terminal 50 amino acids of the GluR2 subunit, transfected into neurons) (from UniProt P19491) (receptor)	1.2
myc-tagged GluR1C (C-terminal 50 amino acids of the GluR1 subunit, transfected into neurons) (receptor)	3.6
myc-tagged GluR2C Δ7 (GluR2 C-terminus lacking the last 7 amino acids, transfected into neurons) (from UniProt P19491) (receptor)	2.9
